Data published in article PMC5473857, “ZipA and FtsA* stabilize FtsZ-GDP miniring structures” (Scientific Reports, 2017).

B1: FtsZ from E. coli (wild type, unlabeled) (natural protein, UniProt P0A9A6 1-383, looked up)
chain: MFEPMELTNDAVIKVIGVGGGGGNAVEHMVRERIEGVEFFAVNTDAQALRKTAVGQTIQIGSGITKGLGAGANPEVGRNAADEDRDALRAALEGADMVFIAAGMGGGTGTGAAPVVAEVAKDLGILTVAVVTKPFNFEGKKRMAFAEQGITELSKHVDSLITIPNDKLLKVLGRGISLLDAFGAANDVLKGAVQGIAELITRPGLMNVDFADVRTVMSEMGYAMMGSGVASGEDRAEEAAEMAISSPLLEDIDLSGARGVLVNITAGFDLRLDEFETVGNTIRAFASDNATVVIGTSLDPDMNDELRVTVVATGIGMDKRPEITLVTNKQVQQPVMDRYQQHGMAPLTQEQKPVAKVVNDNAPQTAKEPDYLDIPAFLRKQAD
notes: Cell division protein FtsZ, E. coli; assembles into polymers with GTP, GDP or GMPCPP; also called FtsZ-GTP; FtsZ-GDP; source: over-expressed from plasmid pET11b, purified (30% saturated ammonium sulfate, source Q 10/10 column)

How the values were obtained:
[1] = biological target: the molecule itself; test: negative-stain electron microscopy; FtsZ alone assembled with GTP; 5 uM FtsZ in HMK buffer pH 7.5 (50 mM HEPES, 100 mM KAc, 5 mM MgAc); also 5 and 10 uM FtsZ in MEK buffer pH 6.5 with 1 mM EDTA plus GTP, and 5 uM FtsZ in HMK with 0.5 mM GMPCPP; 2% uranyl acetate
[2] = biological target: B1; test: Trp quenching of ATTO fluorescence; 1 part ATTO-655-labeled FtsZ T151C/Y222W mixed with 9 parts unlabeled wild-type FtsZ; MMK buffer pH 6.5; 25 °C; excitation 650 nm, emission 680 nm; assembly kinetics; settings: both partners purified
[3] = biological target: the molecule itself; test: negative-stain electron microscopy; FtsZ alone assembled with 0.5 mM GDP, HMK buffer pH 7.5; 5 uM (and 15 uM for E. coli FtsZ); 2% uranyl acetate

B1: binds [1].

B2: FtsZ T151C/Y222W labeled with ATTO-655-maleimide (natural protein, E. coli, UniProt P0A9A6 1-383, looked up)
chain: MFEPMELTNDAVIKVIGVGGGGGNAVEHMVRERIEGVEFFAVNTDAQALRKTAVGQTIQIGSGITKGLGAGANPEVGRNAADEDRDALRAALEGADMVFIAAGMGGGTGTGAAPVVAEVAKDLGILTVAVVTKPFNFEGKKRMAFAEQGICELSKHVDSLITIPNDKLLKVLGRGISLLDAFGAANDVLKGAVQGIAELITRPGLMNVDFADVRTVMSEMGWAMMGSGVASGEDRAEEAAEMAISSPLLEDIDLSGARGVLVNITAGFDLRLDEFETVGNTIRAFASDNATVVIGTSLDPDMNDELRVTVVATGIGMDKRPEITLVTNKQVQQPVMDRYQQHGMAPLTQEQKPVAKVVNDNAPQTAKEPDYLDIPAFLRKQAD
modifications: labeled with ATTO-655-maleimide
notes: Cell division protein FtsZ, E. coli, double mutant T151C/Y222W; Used diluted with a 9-fold excess of unlabeled wild-type FtsZ; also called FtsZY222W/T151C; labeled FtsZ; source: over-expressed from plasmid pET11b, purified (ammonium sulfate, source Q 10/10 column)
B2: binds [2].

B3: PaFtsZ (FtsZ from Pseudomonas aeruginosa), full length (natural protein, UniProt P47204 1-394, looked up)
chain: MFELVDNIAQTAVIKVIGVGGGGGNAVNHMAKNNVEGVEFICANTDAQALKNIAARTVLQLGPGVTKGLGAGANPEVGRQAALEDRERISEVLEGADMVFITTGMGGGTGTGAAPIIAEVAKEMGILTVAVVTRPFPFEGRKRMQIADEGIRALAESVDSLITIPNEKLLTILGKDASLLAAFAKADDVLAGAVRGISDIIKRPGMINVDFADVKTVMSEMGMAMMGTGCASGPNRAREATEAAIRNPLLEDVNLQGARGILVNITAGPDLSLGEYSDVGNIIEQFASEHATVKVGTVIDADMRDELHVTVVATGLGARLEKPVKVVDNTVQGSAAQAAAPAQREQQSVNYRDLDRPTVMRNQSHGSAATAAKLNPQDDLDYLDIPAFLRRQAD
notes: Cell division protein FtsZ, Pseudomonas aeruginosa; also called His6-PaFtsZ; source: expressed from pET15b (NdeI/BamHI), purified (Talon column, thrombin, source Q 10/10 column)
B3: binds [3].
